# In US20260098080A1, “A MODIFIED PROTEIN SCAFFOLD AND USE THEREOF” (EVOLVERITAS BIOTECHNOLÓGIAI KORLÁTOLT FELELOSSÉGU TÁRSASÁG, priority 2022, published 2026):
# Values joined by “and” are separate entries in the source; they are usually repeats but may differ in a detail not shown here. Equal entries are not always repeated. Bridges are numbered along the chain shown (N, C = ends). Where no end group is shown, it is not given here.
# T1: MASP-1 (UniProt P48740 298-699, limits assumed)
# T1 sequence (looked up): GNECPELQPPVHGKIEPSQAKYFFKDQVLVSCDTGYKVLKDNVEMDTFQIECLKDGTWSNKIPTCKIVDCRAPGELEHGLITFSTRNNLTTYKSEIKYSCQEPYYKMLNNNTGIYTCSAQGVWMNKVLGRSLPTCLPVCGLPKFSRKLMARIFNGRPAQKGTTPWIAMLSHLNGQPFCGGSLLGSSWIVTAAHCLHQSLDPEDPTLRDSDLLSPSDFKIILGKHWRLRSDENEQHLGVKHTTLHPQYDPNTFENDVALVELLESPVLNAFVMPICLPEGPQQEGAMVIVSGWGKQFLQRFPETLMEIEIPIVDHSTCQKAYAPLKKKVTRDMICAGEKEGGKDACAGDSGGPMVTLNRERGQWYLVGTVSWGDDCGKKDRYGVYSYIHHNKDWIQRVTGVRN
# T2: fXIIa (human, UniProt P00748 20-615, limits assumed)
# T2 sequence (looked up): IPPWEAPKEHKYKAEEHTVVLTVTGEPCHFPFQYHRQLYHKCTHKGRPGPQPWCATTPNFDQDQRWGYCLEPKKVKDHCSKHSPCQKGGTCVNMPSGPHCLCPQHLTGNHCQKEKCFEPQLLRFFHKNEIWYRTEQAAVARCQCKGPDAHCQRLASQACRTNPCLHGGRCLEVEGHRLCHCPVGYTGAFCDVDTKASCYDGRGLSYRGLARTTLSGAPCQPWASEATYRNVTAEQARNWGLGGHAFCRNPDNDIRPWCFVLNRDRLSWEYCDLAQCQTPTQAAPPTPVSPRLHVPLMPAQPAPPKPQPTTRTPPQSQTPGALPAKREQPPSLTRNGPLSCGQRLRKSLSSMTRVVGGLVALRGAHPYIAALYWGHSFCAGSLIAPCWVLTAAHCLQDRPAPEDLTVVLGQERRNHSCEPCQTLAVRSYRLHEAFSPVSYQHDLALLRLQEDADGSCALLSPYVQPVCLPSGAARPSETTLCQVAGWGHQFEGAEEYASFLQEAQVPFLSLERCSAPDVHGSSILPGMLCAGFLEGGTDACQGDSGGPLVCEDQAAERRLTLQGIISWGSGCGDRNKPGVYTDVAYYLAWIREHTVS
# B1: EVO21 (designed binder)
# chain: KPDFCFLENDPGPCRALKRRYFYNNQTKQCERFGYGGCLGNMNNFVTLEECKNICEDG
# modifications: not fully specified; ends and bridges not checked
# notes: Modified TFPI-D2 Kunitz domain; made as m1
# B2: EVO24 (designed binder)
# chain: KPDFCFLENDPGPCRALKRRYFYNNQTKQCERFYYGGCLGNMNNFETLEECKNICEDG
# modifications: not fully specified; cysteine pairing not given here
# notes: as for B1
# B3: EVO214 (designed binder)
# chain: KPDFCFLENDPGPCRALKLRYFYNNQTKQCERFGYGGCLGNMNNFVTLEECKNICEDG
# modifications: not fully specified; ends and bridges not checked
# notes: as for B1
# B4: EVO23 (designed binder)
# chain: KPDFCFLENDPGPCRALKRRYFYNNQTKQCERFYYGGCFGNMNNFVTLEECKNICEDG
# modifications: not fully specified; cysteine pairing not given here
# notes: as for B1
# Tests used:
# human MASP-2 = human MASP-2 (Homo sapiens, UniProt O00187); details: as disclosed in WO2018127719; read-out: inhibitory binding constant (KI) on human MASP-2; cited from earlier work
# human MASP-2, sequence (O00187 16-686): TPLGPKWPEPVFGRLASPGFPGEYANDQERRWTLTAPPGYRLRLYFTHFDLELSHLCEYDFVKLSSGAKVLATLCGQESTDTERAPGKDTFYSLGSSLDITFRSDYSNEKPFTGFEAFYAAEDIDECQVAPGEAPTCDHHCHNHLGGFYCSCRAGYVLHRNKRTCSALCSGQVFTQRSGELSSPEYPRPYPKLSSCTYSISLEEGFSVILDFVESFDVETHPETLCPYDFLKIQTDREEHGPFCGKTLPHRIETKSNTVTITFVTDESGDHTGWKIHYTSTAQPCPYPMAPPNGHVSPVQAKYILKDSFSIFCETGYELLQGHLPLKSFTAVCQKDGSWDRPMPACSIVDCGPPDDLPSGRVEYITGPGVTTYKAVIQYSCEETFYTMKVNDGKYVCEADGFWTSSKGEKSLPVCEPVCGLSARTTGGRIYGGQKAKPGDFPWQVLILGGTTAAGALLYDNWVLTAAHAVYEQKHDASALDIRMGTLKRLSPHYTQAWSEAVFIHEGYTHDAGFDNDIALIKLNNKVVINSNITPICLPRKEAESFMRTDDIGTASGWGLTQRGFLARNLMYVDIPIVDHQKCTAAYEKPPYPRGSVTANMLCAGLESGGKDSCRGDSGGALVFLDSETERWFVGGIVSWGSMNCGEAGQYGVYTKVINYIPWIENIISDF
# rat MASP-2 = rat MASP-2 (Rattus norvegicus, UniProt Q9JJS8); details: as disclosed in WO2018127719; cited from earlier work
# rat MASP-2, sequence (Q9JJS8 20-685): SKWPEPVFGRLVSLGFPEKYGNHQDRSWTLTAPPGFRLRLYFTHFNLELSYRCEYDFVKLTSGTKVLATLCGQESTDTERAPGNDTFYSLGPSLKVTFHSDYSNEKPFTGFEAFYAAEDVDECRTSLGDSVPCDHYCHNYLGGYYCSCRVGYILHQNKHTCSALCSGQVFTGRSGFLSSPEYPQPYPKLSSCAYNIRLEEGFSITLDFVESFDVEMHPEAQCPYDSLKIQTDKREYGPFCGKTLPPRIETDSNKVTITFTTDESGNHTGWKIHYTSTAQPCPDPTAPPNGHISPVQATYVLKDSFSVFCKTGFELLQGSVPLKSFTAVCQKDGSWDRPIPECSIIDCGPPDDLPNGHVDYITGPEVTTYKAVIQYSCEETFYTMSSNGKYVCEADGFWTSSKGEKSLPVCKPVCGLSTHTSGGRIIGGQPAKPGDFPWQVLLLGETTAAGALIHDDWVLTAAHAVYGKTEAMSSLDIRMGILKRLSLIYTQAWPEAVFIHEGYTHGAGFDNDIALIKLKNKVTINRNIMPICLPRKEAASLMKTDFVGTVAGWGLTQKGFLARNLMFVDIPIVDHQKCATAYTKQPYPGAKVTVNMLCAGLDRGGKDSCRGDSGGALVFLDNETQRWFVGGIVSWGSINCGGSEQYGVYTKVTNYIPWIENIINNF
# extrinsic pathway = test: Human blood coagulation: prothrombin time; assay type: biochemical; details: human plasma, duplicates 21/1 and 21/2
# Description: (§1) The effect of the proteins of the present invention on the blood coagulation process was tested in three standard assays, the thrombin time, testing any direct effects on thrombin; prothrombin time, testing any effects on the extrinsic pathway; and the activated partial thromboplastin time, testing any effects on the intrinsic pathway.
# (§2) Blood was collected from a healthy individual by vein puncture after informed consent. The blood was treated with sodium-citrate (3.8% wt/vol) and centrifuged. All three assays were performed on the automated instrument Sysmex CA-1500 (Sysmex) with Innovin reagent (Dale Behring, Marburg, Germany).
# (§3) The proteins of the present invention were applied in a twofold serial dilution in 1.4% wt/vol sodium bicarbonate (vehicle) with the highest final concentration being 10 μM (3.4 μM for EVO24 (SEQ ID NO: 15)) and the lowest final concentration being 156 nM (53 nM for EVO24 (SEQ ID NO: 15)).
# (§4) All measurements were done in duplicates and a vehicle control was also tested. The highest concentration value is about 5 orders of magnitudes higher than the KD values of the four proteins of the present invention on human MASP-2.
# thrombin = test: Human blood coagulation: thrombin time; assay type: biochemical; details: human plasma, duplicates 21/1 and 21/2
# Description: as §1, §2, §3, §4
# intrinsic pathway = test: Human blood coagulation: activated partial thromboplastin time; assay type: biochemical; details: human plasma, duplicates 21/1 and 21/2
# Description: as §1, §2, §3, §4
# [1] = molecular target: T3, human MASP-2cf CCP1-CCP2-SP (human, UniProt O00187 298-686, limits assumed); test: SPR, target immobilised
# T3 construct: domain: CCP1-CCP2-SP; also called human MASP-2 catalytic fragment
# T3 sequence (O00187 298-686 limits assumed): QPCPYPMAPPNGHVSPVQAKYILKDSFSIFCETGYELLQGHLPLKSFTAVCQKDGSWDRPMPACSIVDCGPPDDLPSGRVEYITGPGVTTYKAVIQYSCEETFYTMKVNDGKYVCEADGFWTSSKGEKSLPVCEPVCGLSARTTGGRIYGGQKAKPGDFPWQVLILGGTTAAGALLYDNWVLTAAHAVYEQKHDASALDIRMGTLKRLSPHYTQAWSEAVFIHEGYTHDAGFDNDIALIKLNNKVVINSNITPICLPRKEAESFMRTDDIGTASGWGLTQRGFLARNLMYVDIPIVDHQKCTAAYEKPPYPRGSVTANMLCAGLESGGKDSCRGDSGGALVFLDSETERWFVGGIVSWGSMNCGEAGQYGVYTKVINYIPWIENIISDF
# [2] = molecular target: T4, rat MASP-2cf CCP1-CCP2-SP (rat, UniProt Q9JJS8 298-685); test: SPR, target immobilised
# T4 construct: range 298-685; Mw 42309 Da; also called rat MASP-2 catalytic fragment
# T4 sequence (Q9JJS8 other isoform, or with tags, fused parts or gaps limits assumed, form in doubt): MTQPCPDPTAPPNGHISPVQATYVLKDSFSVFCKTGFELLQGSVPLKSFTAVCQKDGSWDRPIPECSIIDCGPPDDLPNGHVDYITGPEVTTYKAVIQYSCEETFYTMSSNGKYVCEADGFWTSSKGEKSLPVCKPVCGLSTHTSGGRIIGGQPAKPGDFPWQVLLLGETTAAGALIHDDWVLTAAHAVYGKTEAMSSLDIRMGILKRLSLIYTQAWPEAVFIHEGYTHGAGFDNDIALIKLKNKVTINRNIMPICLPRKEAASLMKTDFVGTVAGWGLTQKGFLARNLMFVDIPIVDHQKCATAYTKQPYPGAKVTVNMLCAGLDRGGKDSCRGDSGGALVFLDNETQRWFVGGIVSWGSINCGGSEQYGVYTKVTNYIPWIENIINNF
# [3] = molecular target: T5, human MASP-2 (in normal human serum) (human, UniProt O00187 16-686); test: cell-based or functional assay
# T5 sequence (O00187 16-686 limits assumed): as the sequence (O00187 16-686) above
# [4] = molecular target: rat MASP-2 (in rat serum) (rat, UniProt Q9JJS8 20-685); test: cell-based or functional assay
# rat MASP-2 (in rat serum), sequence (Q9JJS8 20-685 limits assumed): as the sequence (Q9JJS8 20-685) above
# MASP-1 = molecular target: T1, MASP-1; test: cell-based or functional assay
# fIXa = fIXa (human, UniProt P00740 47-461); test: cell-based or functional assay
# fIXa, sequence (P00740 47-461 limits assumed): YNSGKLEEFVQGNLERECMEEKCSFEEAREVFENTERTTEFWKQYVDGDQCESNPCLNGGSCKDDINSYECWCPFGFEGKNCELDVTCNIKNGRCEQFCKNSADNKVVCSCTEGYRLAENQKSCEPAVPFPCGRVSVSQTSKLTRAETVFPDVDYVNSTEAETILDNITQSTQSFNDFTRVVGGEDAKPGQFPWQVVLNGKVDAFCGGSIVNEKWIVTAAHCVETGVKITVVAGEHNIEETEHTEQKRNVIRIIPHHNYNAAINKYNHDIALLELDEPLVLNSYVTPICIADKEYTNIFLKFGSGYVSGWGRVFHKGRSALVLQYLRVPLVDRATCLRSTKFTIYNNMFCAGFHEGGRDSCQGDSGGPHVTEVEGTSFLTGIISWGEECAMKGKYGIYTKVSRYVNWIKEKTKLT
# fXIIa = molecular target: T2, fXIIa; test: cell-based or functional assay
# fXIa = fXIa (human, UniProt P03951 19-625); test: cell-based or functional assay
# fXIa, sequence (P03951 19-625 limits assumed): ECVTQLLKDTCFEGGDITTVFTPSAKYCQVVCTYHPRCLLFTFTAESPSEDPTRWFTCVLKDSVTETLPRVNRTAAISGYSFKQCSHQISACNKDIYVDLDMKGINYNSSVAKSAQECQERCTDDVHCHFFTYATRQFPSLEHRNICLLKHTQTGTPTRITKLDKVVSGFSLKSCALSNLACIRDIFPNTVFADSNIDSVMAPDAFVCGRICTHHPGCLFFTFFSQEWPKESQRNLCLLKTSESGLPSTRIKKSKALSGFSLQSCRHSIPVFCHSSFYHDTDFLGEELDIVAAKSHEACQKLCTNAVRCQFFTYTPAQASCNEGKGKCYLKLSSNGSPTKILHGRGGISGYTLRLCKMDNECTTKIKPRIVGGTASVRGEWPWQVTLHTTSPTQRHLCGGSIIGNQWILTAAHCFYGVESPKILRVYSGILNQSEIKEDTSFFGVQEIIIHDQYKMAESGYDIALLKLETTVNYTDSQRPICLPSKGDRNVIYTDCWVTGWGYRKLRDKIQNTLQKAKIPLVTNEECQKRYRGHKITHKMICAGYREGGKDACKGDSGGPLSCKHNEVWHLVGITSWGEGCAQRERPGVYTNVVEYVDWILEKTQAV
# [5] = molecular target: T5, human MASP-2 (in normal human serum); test: cell-based or functional assay; remark: listed apart in the source
# [6] = molecular target: T3, human MASP-2cf CCP1-CCP2-SP; test: enzyme inhibition, tight-binding fit
# [7] = molecular target: T4, rat MASP-2cf CCP1-CCP2-SP; test: enzyme inhibition, tight-binding fit
molecule,measurement,setting,value
"SEQ ID NO: 11 in WO2018127719: highest efficiency human MASP-2 inhibiting Kunitz domain compound of WO2018127719, canonical inhibitory loop sequence GFCRAVKR (KPDFCFLENDPGPCRALKRRYFYNNQTKQCERFYYGGCFGNMNNFETLEECKNICEDG)",Ki,human MASP-2,2 nM
same,Ki,rat MASP-2,640 nM
"KPDFCFLENDPGPCRALKRRYFYNNQTKQCERFGYGGCLGNMNNFVTLEECKNICEDG (disulfide 5-55, 14-38, 30-51) [EVO21]",PI,extrinsic pathway; 0.15625 μM,10.2 and 10.0
same,PI,extrinsic pathway; 0.3125 μM,10.1 and 10.0
same,PI,extrinsic pathway; 0.625 μM,10.1 and 10.0
same,PI,extrinsic pathway; 1.25 μM,10.2 and 10.1
same,PI,extrinsic pathway; 2.5 μM,10.3 and 10.2
same,PI,extrinsic pathway; 5 μM,10.6 and 10.3
same,PI,extrinsic pathway; 10 μM,11.4 and 11.9
same,TT,thrombin; 0.15625 μM,17.1 and 17.0
same,TT,thrombin; 0.3125 μM,16.9 and 17.0
same,TT,thrombin; 0.625 μM,16.8 and 16.9
same,TT,thrombin; 1.25 μM,16.9 and 17.1
same,TT,thrombin; 2.5 μM,16.4 and 17.4
same,TT,thrombin; 5 μM,16.5 and 17.4
same,TT,thrombin; 10 μM,16.8 and 16.4
same,APTT,intrinsic pathway; 0.15625 μM,32.9 and 32.3
same,APTT,intrinsic pathway; 0.3125 μM,33.6 and 32.8
same,APTT,intrinsic pathway; 0.625 μM,34.3 and 33.6
same,APTT,intrinsic pathway; 1.25 μM,37.0 and 34.8
same,APTT,intrinsic pathway; 2.5 μM,40.0 and 37.1
same,APTT,intrinsic pathway; 5 μM,45.6 and 40.1
same,APTT,intrinsic pathway; 10 μM,58.7 and 67.6
B1,Kd,[1],0.037 nM
same,Relative affinity,[1],48 fold vs EVO2
same,koff,[1],4.92e-05 s⁻¹
same,kon,[1],1.32e+06 M⁻¹ s⁻¹
same,Kd,[2],0.082 nM
same,Relative affinity,[2],44.1 fold vs EVO2
same,koff,[2],4.49e-05 s⁻¹
same,kon,[2],545000 M⁻¹ s⁻¹
same,"IC50, lectin pathway C4 deposition, human serum",[3],5.7 nM
same,"Relative potency, lectin pathway, human serum",[3],24.1 fold vs EVO2
same,"IC50, lectin pathway C4 deposition, rat serum",[4],10.9 nM
same,"Relative potency, lectin pathway, rat serum",[4],9.8 fold vs EVO2
same,"IC50, enzyme activity on synthetic substrate",MASP-1,13000 nM
same,"IC50, enzyme activity on synthetic substrate",fIXa,28000 nM
same,"IC50, enzyme activity on synthetic substrate",fXIIa,10500 nM
same,"IC50, enzyme activity on synthetic substrate",fXIa,800 nM
same,Relative potency (relative human lectin pathway inhibitory efficiency compared to EVO2),[5],24 fold relative to EVO2
B2,Ki,[6],0.34 nM
same,Ki,[7],0.36 nM
same,Kd,[1],0.276 nM
same,Relative affinity,[1],6.5 fold vs EVO2
same,koff,[1],0.000622 s⁻¹
same,kon,[1],2.25e+06 M⁻¹ s⁻¹
same,Kd,[2],0.289 nM
same,Relative affinity,[2],12.6 fold vs EVO2
same,koff,[2],0.000327 s⁻¹
same,kon,[2],1.13e+06 M⁻¹ s⁻¹
same,"IC50, lectin pathway C4 deposition, human serum",[3],7.6 nM
same,"Relative potency, lectin pathway, human serum",[3],18.1 fold vs EVO2
same,"IC50, lectin pathway C4 deposition, rat serum",[4],6.6 nM
same,"Relative potency, lectin pathway, rat serum",[4],16.2 fold vs EVO2
same,"IC50, enzyme activity on synthetic substrate",MASP-1,9500 nM
same,"IC50, enzyme activity on synthetic substrate",fIXa,123000 nM
same,"IC50, enzyme activity on synthetic substrate",fXIIa,16100 nM
same,"IC50, enzyme activity on synthetic substrate",fXIa,500 nM
B3,Kd,[1],0.038 nM
same,Relative affinity,[1],47.6 fold vs EVO2
same,koff,[1],4.78e-05 s⁻¹
same,kon,[1],1.27e+06 M⁻¹ s⁻¹
same,Kd,[2],0.117 nM
same,Relative affinity,[2],31 fold vs EVO2
same,koff,[2],7.19e-05 s⁻¹
same,kon,[2],614000 M⁻¹ s⁻¹
same,"IC50, lectin pathway C4 deposition, human serum",[3],4.3 nM
same,"Relative potency, lectin pathway, human serum",[3],32.4 fold vs EVO2
same,"IC50, lectin pathway C4 deposition, rat serum",[4],11.2 nM
same,"Relative potency, lectin pathway, rat serum",[4],9.5 fold vs EVO2
same,"IC50, enzyme activity on synthetic substrate",MASP-1,9600 nM
same,"IC50, enzyme activity on synthetic substrate",fIXa,24000 nM
same,"IC50, enzyme activity on synthetic substrate",fXIIa,3700 nM
same,"IC50, enzyme activity on synthetic substrate",fXIa,200 nM
B4,Kd,[1],0.094 nM
same,Relative affinity,[1],19.1 fold vs EVO2
same,koff,[1],0.000197 s⁻¹
same,kon,[1],2.1e+06 M⁻¹ s⁻¹
same,Kd,[2],0.674 nM
same,Relative affinity,[2],5.4 fold vs EVO2
same,koff,[2],0.000662 s⁻¹
same,kon,[2],982000 M⁻¹ s⁻¹
same,"IC50, lectin pathway C4 deposition, human serum",[3],2.9 nM
same,"Relative potency, lectin pathway, human serum",[3],47.1 fold vs EVO2
same,"IC50, lectin pathway C4 deposition, rat serum",[4],8.1 nM
same,"Relative potency, lectin pathway, rat serum",[4],13.1 fold vs EVO2
same,"IC50, enzyme activity on synthetic substrate",MASP-1,6500 nM
same,"IC50, enzyme activity on synthetic substrate",fIXa,2600 nM
same,"IC50, enzyme activity on synthetic substrate",fXIIa,3300 nM
same,"IC50, enzyme activity on synthetic substrate",fXIa,500 nM
